Reference: patent US20250034212A1, “PEPTIDE” (PEPTIDREAM INC., priority 2021, published 2025)
Values belong to the molecule of their own block, whether it stands above or below them. Starred links: 1 amine or outer side, 2 acyl side, 3 side chain; linkers in the order of their positions; H or OH if unused. Positions of bridges follow the written chain, without caps; N, C: chain ends. Non-standard residues stand in square brackets, D forms with d. No end group written: not given here. *: point of attachment. HA‑tag = HA-tag attached to the G end of the C-terminal linker, CC(C)[C@H](NC(=O)[C@H](CC(=O)O)NC(=O)[C@H](Cc1ccc(O)cc1)NC(=O)[C@@H]1CCCN1C(=O)[C@H](Cc1ccc(O)cc1)N*)C(=O)N1CCC[C@H]1C(=O)N[C@@H](CC(=O)O)C(=O)N[C@@H](Cc1ccc(O)cc1)C(=O)N[C@@H](C)C(=O)O; KCOpipzaa = N6-(4-(carboxymethyl)piperazine-1-carbonyl)-L-lysine, O=C(NCCCC[C@H](N[*:1])C(=O)[*:2])N1CCN(CC(=O)[*:3])CC1; Phe(3-guanidino) = 3-[(aminoiminomethyl)amino]-L-phenylalanine, N=C(N)Nc1cccc(C[C@H](N[*:1])C(=O)[*:2])c1; Trp(6-aza) = N[C@@H](Cc1c[nH]c2cnccc12)C(=O)O; Trp(7-aza) = N[C@@H](Cc1c[nH]c2ncccc12)C(=O)O; 1Nal = N[C@@H](Cc1cccc2ccccc12)C(=O)O; Gly(NCH2CH2Ph) = O=C(O)CNCCc1ccccc1; 3Pal = N[C@@H](Cc1cccnc1)C(=O)O; 4Pal = N[C@@H](Cc1ccncc1)C(=O)O

Key:
recombinant human TGF-β1 = molecular target: T1, recombinant human TGF-β1 (Homo sapiens, UniProt P01137); assay: ELISA of HA-tagged peptides with TGF-β1 beads; assay type: binding; settings: for Activity of binding to TGF-β: relative value with binding of peptide TGFb1_061 (SEQ ID NO: 62) to TGF-β1 set to 100%, HA-tagged peptides, TGF-β1 beads ELISA
T1 construct: purchased R&D systems
From the text: In this Example, ELISA was used to evaluate the binding between TGF-β1 and each of various peptides consisting of the amino acid sequences set forth in SEQ ID NOs: 34-69 synthesized in Examples 6 and 7. An HA-tag was attached to the G end of the C-terminal linker of the peptide consisting of the amino acid sequence set forth in SEQ ID NOs: 34-69. As used herein, the “HA-tag” means the amino acid sequence of PEG10[…] (SEQ ID NO: 70).
The binding activity of each peptide to TGF-β1 was examined by ELISA using the peptide consisting of the amino acid sequence set forth in SEQ ID NOs: 34-69 having an HA-tag attached and TGF-β1 beads.
Recombinant human TGF-β1 (R&D Systems) was immobilized on Dynabead M-270 Carboxylic Acid (Thermo fisher scientific) to prepare TGF-β1 beads. The immobilization reaction was performed using the Amine Coupling kit (DOJINDO LABORATORIES).
TGF-β1 beads and each peptide having the HA-tag sequence attached at the C-terminus were reacted in PBS (PBS-T) containing 0.1% Tween 20 (NACALAI TESQUE, INC.) for 1 hour and then washed by PBS-T. To detect the peptide bound to the TGF-β1 beads, an anti-HA-tag mAb-HRP-DirecT (MBL) and the TGF-β1 beads were reacted in PBS-T containing 1% BSA for 30 min. After washing with PBST, a SureBlue TMB Microwell Peroxidase Substrate (Kirkegaard & Perry Laboratories) was added for coloration for 10 min. TMB stop solution (Kirkegaard & Perry Laboratories) was then added to stop the coloration reaction. An EnSpire (Perkin Elmer) was used to measure absorbance.
Note that the binding activity was expressed as a relative value when the ability of binding the peptide TGFb1_061 (SEQ ID NO: 62) to TGF-β1 was set to 100%.

[1] = molecular target: T2, recombinant human TGF-β1 (R&D systems) (human, UniProt P01137 279-390); assay: SPR, TGF-β1 immobilised, single cycle kinetics
T2 construct: Bought protein; immobilised on a CM3 chip (SPR) or on Dynabeads (ELISA), added to cells in the SBE reporter assay; also called TGF-β1 beads
Protocol: Subsequently, 50 μL of 60 mM EDC solution (Global Life Science Technologies Japan Co., Ltd.) and 50 μL of 650 mM NHS solution (Global Life Science Technologies Japan Co., Ltd.) were mixed. Next, the reaction was carried out at a flow rate of 10 μL/min for 420 seconds. Then, 150 μL of 0.2 μM TGF-β solution diluted in 10 mM acetic acid solution (pH 5.0) was prepared and reacted at a flow rate of 10 μL/min for 420 seconds to immobilize TGF-β on the CM3 sensor chip. TGF-β was human-derived TGF-β1 or β2 (recombinant human TGF-β1, 2) and was obtained from R&D systems. After immobilization, capping was performed by reacting with 1.0 M ethanolamine aqueous solution (Global Life Science Technologies Japan Co., Ltd.) at a flow rate of […] for 420 seconds.
A liquid prepared by dissolving each peptide at 10 mM in DMSO solution was diluted with running buffer to prepare a peptide-dissolved solution at a final concentration of 10 μM. Subsequently, 50 nM, 25 nM, 12.5 nM, 5 nM, and 2.5 nM peptide solutions were prepared. Using the above samples, the kinetics of each peptide against TGF-β was obtained by SPR measurement.
The kinetics evaluation model was Single Cycle Kinetics, and curve fitting was performed using Biacore T200 Evaluation Software Version 3.0 (Global Life Science Technologies Japan Co., Ltd.). The binding of various peptides to TGF-β was evaluated by performing least-squares curve fitting on the obtained sensorgram to calculate the KD value.

[2] = molecular target: T2, recombinant human TGF-β1 (R&D systems); assay: cell-based or functional assay

T2 sequence (P01137 279-390 limits assumed): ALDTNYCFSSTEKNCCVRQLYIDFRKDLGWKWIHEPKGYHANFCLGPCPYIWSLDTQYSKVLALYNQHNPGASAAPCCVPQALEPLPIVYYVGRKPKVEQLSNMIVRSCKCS
T1 sequence (P01137 279-390 limits assumed): as above

- Activity of binding to TGF-β (recombinant human TGF-β1): 104%
Molecule: 65 ({CH2CO}-F[1Nal]VVNV[Phe(3-guanidino)]DD[Gly(NCH2CH2Ph)]V[1Nal]YHVCG; thioether N-16; also: HA-tag) [compound 65]

- Activity of binding to TGF-β (recombinant human TGF-β1): 106%
Molecule: 66 ({CH2CO}-F[Trp(7-aza)]VVNVYDD[Gly(NCH2CH2Ph)]V[1Nal]YHVCG; thioether N-16; also: HA-tag) [compound 66]

- Activity of binding to TGF-β (recombinant human TGF-β1): 116%
Molecule: 67 ({CH2CO}-F[1Nal]VVNVYDE[Gly(NCH2CH2Ph)]V[1Nal]YHVCG; thioether N-16; also: HA-tag) [compound 67]

- Activity of binding to TGF-β (recombinant human TGF-β1): 119%
Molecule: 68 ({CH2CO}-F[1Nal]VVNV[4Pal]DD[Gly(NCH2CH2Ph)]V[1Nal]YHVCG; thioether N-16; also: HA-tag) [compound 68]

- Activity of binding to TGF-β (recombinant human TGF-β1): 140%
Molecule: 69 ({CH2CO}-F[1Nal]VVNV[3Pal]DD[Gly(NCH2CH2Ph)]V[1Nal]YHVCG; thioether N-16; also: HA-tag) [compound 69]

- activity of binding to TGF-β, relative value (recombinant human TGF-β1; ELISA, relative to TGFb1_061 (SEQ ID NO: 62) set to 100%, HA-tag attached): 100%
Molecule: TGFb1_061: cyclic peptide of Table 4 with G linker and HA-tag; ELISA reference set to 100% ({CH2CO}-F[1Nal]VVNVYDD[Gly(NCH2CH2Ph)]V[1Nal]YHVCG-{HA‑tag}; thioether N-16)

- Kd [1]: 0.9 nM
- SBE reporter % inhibition, peptide 0.075 nM [2]: 2%
- SBE reporter % inhibition, peptide 0.75 nM [2]: 63.8%
- SBE reporter % inhibition, peptide 7.5 nM [2]: 97.9%
- SBE reporter % inhibition, peptide 75.0 nM [2]: 99.9%
B1: TGFb1_010 (peptide)
peptide: {CH2CO}-F[1Nal]V[KCOpipzaa]NV[4Pal]DD[Gly(NCH2CH2Ph)]V[1Nal]YHVCG
modifications: thioether N-16; not fully specified (C-terminus)
notes: cyclic peptide; C-terminal G is a linker

- Kd [1]: 0.46 nM
B2: TGFb1_002 (peptide)
peptide: {CH2CO}-F[1Nal]VVNVYDD[Gly(NCH2CH2Ph)]V[1Nal]YHVC
modifications: thioether N-16
notes: cyclic peptide

- Kd [1]: 1.49 nM
- SBE reporter % inhibition, peptide 0.075 nM [2]: 0%
- SBE reporter % inhibition, peptide 0.75 nM [2]: 0.9%
- SBE reporter % inhibition, peptide 7.5 nM [2]: 70.1%
- SBE reporter % inhibition, peptide 75.0 nM [2]: 94.9%
B3: TGFb1_004 (peptide)
peptide: {CH2CO}-F[Trp(6-aza)]VVNVYDD[Gly(NCH2CH2Ph)]V[1Nal]YHVCG
modifications: thioether N-16
notes: as for B1

- Kd [1]: 4.64 nM
- SBE reporter % inhibition, peptide 0.075 nM [2]: 3.8%
- SBE reporter % inhibition, peptide 0.75 nM [2]: 56.8%
- SBE reporter % inhibition, peptide 7.5 nM [2]: 94.6%
- SBE reporter % inhibition, peptide 75.0 nM [2]: 98.4%
B4: TGFb1_008 (peptide)
peptide: {CH2CO}-F[Trp(7-aza)]VVNV[4Pal]DD[Gly(NCH2CH2Ph)]V[1Nal]YHVCG
modifications: thioether N-16; not fully specified (C-terminus)
notes: as for B1

- Kd [1]: 2.7 nM
- SBE reporter % inhibition, peptide 0.075 nM [2]: 0.1%
- SBE reporter % inhibition, peptide 0.75 nM [2]: 37.5%
- SBE reporter % inhibition, peptide 7.5 nM [2]: 83.5%
- SBE reporter % inhibition, peptide 75.0 nM [2]: 96.7%
B5: TGFb1_007 (peptide)
peptide: {CH2CO}-F[1Nal]VKNV[4Pal]DD[Gly(NCH2CH2Ph)]V[1Nal]YHVCG
modifications: thioether N-16; not fully specified (C-terminus)
notes: as for B1

- Kd [1]: 0.55 nM
- SBE reporter % inhibition, peptide 0.075 nM [2]: 19.7%
- SBE reporter % inhibition, peptide 0.75 nM [2]: 69.7%
- SBE reporter % inhibition, peptide 7.5 nM [2]: 98.1%
- SBE reporter % inhibition, peptide 75.0 nM [2]: 101%
B6: TGFb1_001 (peptide)
peptide: {CH2CO}-F[1Nal]VVNVYDD[Gly(NCH2CH2Ph)]V[1Nal]YHVCG
modifications: thioether N-16
notes: as for B1

- Kd [1]: 1.15 nM
- SBE reporter % inhibition, peptide 0.075 nM [2]: 0.4%
- SBE reporter % inhibition, peptide 0.75 nM [2]: 47%
- SBE reporter % inhibition, peptide 7.5 nM [2]: 90.8%
- SBE reporter % inhibition, peptide 75.0 nM [2]: 98.9%
B7: TGFb1_005 (peptide)
peptide: {CH2CO}-F[Trp(7-aza)]VVNVYDD[Gly(NCH2CH2Ph)]V[1Nal]YHVCG
modifications: thioether N-16; not fully specified (C-terminus)
notes: as for B1
